From patent US20240150449A1 (MABYLON, published 2024)

Molecular target: T1, recombinant non-phosphorylated full-length TDP-43 (human, UniProt Q13148 1-414)
T1 construct: Bought recombinant protein; also called non-pathological full-length TDP-43; recombinantly expressed full-length TDP-43 (OriGene Technologies)
Experiment: ELISA, antigen coated
Experimental: Plates were washed with PBS-Tween 0.05% and blocked 1 h at room temperature with PBS containing 5% Milk (Rapilait, Migros, Zurich, Switzerland) or 2% bovine serum albumin (BSA, Sigma-Aldrich Chemie GmbH, Buchs, Switzerland). Patient sera, B cell conditioned medium, or recombinant antibody preparations were incubated for 2 h at room temperature. Binding of human IgG to the antigen of interest was determined using a HRP-conjugated anti human antibody (anti-IgG-HRP from Jackson ImmunoResearch, West Grove, PA, USA) followed by measurement of the HRP activity using a tetramethylbenzidine substrate solution (TMB, Sigma-Aldrich Chemie GmbH, Buchs, Switzerland).

T1 sequence (Q13148 whole entry): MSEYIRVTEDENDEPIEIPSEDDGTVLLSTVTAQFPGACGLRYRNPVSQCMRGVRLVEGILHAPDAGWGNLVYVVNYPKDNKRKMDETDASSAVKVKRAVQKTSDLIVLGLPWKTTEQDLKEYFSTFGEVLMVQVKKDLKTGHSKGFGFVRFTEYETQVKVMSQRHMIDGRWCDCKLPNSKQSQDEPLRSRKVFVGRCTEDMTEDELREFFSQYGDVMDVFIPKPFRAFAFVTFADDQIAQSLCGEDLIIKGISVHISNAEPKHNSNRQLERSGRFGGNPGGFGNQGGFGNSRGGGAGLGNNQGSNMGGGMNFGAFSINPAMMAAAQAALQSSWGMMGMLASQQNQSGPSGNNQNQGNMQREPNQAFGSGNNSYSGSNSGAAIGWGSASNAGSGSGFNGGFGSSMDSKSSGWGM

binding result: no binding
B1: antibody 15D7 (human IgG) (antibody, V domains shown)
VH: EVQLVESGGGLVQPGGSLRLSCSASGFTFGNYAMHWVRQAPGKGLEYVSAMSSNGGSTYYGDSVKGRFTISRDNSKNTLYLQMSSLRAEDTAVYYCVTRGRKAPSLYYFDCWGPGTLVTVSS
VL: not shown
notes: Recombinant human IgG
